PMC4063126

Biological target: DENV1 prM protein with H98A (dengue virus 1 (DENV1), FGA/NA d1d strain)
Experiment: co-IP

## DENV1 E protein with H244A (natural protein)
  co-IP at pH 6.0 as percent of that at pH 7.0: 33%
